Literature values in publication PMC4082410.

Columns and labels:
Assay in all cases: kinetics
[1] = target: preMADH (Paracoccus denitrificans) (UniProt P22619)
[2] = target: quinol MADH (Paracoccus denitrificans) (UniProt P22619)
[3] = target: quinone MADH (Paracoccus denitrificans) (UniProt P22619)

| Substance | Kd [1] | Kd [2] | Kd [3] |
| --- | --- | --- | --- |
| bis-Fe(IV) MauG (from UniProt Q51658) | < 1.5 µM | 11.2 µM | – |
| diferrous MauG (from UniProt Q51658) | – | – | 10.1 µM |
